Data published in publication PMC11969024 (2025).

B1: peptide HD2 (from tick evasin EVA4) / CCL18 (biotinylated, synthetic) (parent complex)
chain 1: EEDDYTAYAPLTCYFT
chain 2: AQVGTNKELCCLVYTSWQIPQKFIVDYSETSPQCPKPGVILLTKRGRQICADPNKKWVQKYISDLKLNA

Variants of: B1

| Variant | enrichment |
| --- | --- |
| chain 1 EEDDYTAYAPLTCTFT [chain 1 Y14T] | -1.1 log2 (difference from the parental peptide) |
| chain 1 EEDDYTAYAPLTCCFT [chain 1 Y14C] | -8.51 log2 (difference from the parental peptide) |
| chain 1 EEDDYTAYAPLTCKFT [chain 1 Y14K] | -6.36 log2 (difference from the parental peptide) |
| chain 1 EEDDYTAYAPLTCNFT [chain 1 Y14N] | -4.78 log2 (difference from the parental peptide) |
| chain 1 EEDDYTAYAPLTCDFT [chain 1 Y14D] | -5.4 log2 (difference from the parental peptide) |
| chain 1 EEDDYTAYAPLTCVFT [chain 1 Y14V] | -1.51 log2 (difference from the parental peptide) |
| chain 1 EEDDYTAYAPLTCQFT [chain 1 Y14Q] | -3.29 log2 (difference from the parental peptide) |
| chain 1 EEFDYTAYAPLTCYFT [chain 1 D3F] | -1.57 log2 (difference from the parental peptide) |
| chain 1 EEADYTAYAPLTCYFT [chain 1 D3A] | -0.703 log2 (difference from the parental peptide) |
| chain 1 EEKDYTAYAPLTCYFT [chain 1 D3K] | -3.97 log2 (difference from the parental peptide) |
| chain 1 EEGDYTAYAPLTCYFT [chain 1 D3G] | -0.0296 log2 (difference from the parental peptide) |
| chain 1 EETDYTAYAPLTCYFT [chain 1 D3T] | -2 log2 (difference from the parental peptide) |
| chain 1 EERDYTAYAPLTCYFT [chain 1 D3R] | -3.26 log2 (difference from the parental peptide) |
| chain 1 EEDIYTAYAPLTCYFT [chain 1 D4I] | -2.18 log2 (difference from the parental peptide) |
| chain 1 EEDFYTAYAPLTCYFT [chain 1 D4F] | -2.31 log2 (difference from the parental peptide) |
| chain 1 EEDQYTAYAPLTCYFT [chain 1 D4Q] | -1.98 log2 (difference from the parental peptide) |
| chain 1 EEDNYTAYAPLTCYFT [chain 1 D4N] | -1.99 log2 (difference from the parental peptide) |
| chain 1 EEDVYTAYAPLTCYFT [chain 1 D4V] | -3.19 log2 (difference from the parental peptide) |
| chain 1 EEDYYTAYAPLTCYFT [chain 1 D4Y] | -1.35 log2 (difference from the parental peptide) |
| chain 1 EEDGYTAYAPLTCYFT [chain 1 D4G] | -2.83 log2 (difference from the parental peptide) |
| chain 1 EEDEYTAYAPLTCYFT [chain 1 D4E] | -0.211 log2 (difference from the parental peptide) |
| chain 1 EEDWYTAYAPLTCYFT [chain 1 D4W] | -1.54 log2 (difference from the parental peptide) |
| chain 1 EMDDYTAYAPLTCYFT [chain 1 E2M] | -1.79 log2 (difference from the parental peptide) |

| Variant | enrichment |
| --- | --- |
| chain 1 EDDDYTAYAPLTCYFT [chain 1 E2D] | -0.0115 log2 (difference from the parental peptide) |
| chain 1 EWDDYTAYAPLTCYFT [chain 1 E2W] | -1.25 log2 (difference from the parental peptide) |
| chain 1 ERDDYTAYAPLTCYFT [chain 1 E2R] | -3.87 log2 (difference from the parental peptide) |
| chain 1 EKDDYTAYAPLTCYFT [chain 1 E2K] | -3.34 log2 (difference from the parental peptide) |
| chain 1 EQDDYTAYAPLTCYFT [chain 1 E2Q] | -1.4 log2 (difference from the parental peptide) |
| chain 1 ETDDYTAYAPLTCYFT [chain 1 E2T] | -2.6 log2 (difference from the parental peptide) |
| chain 1 EHDDYTAYAPLTCYFT [chain 1 E2H] | -2.48 log2 (difference from the parental peptide) |
| chain 1 EEDDYSAYAPLTCYFT [chain 1 T6S] | 2.9 log2 (difference from the parental peptide) |
| chain 1 EEDDYYAYAPLTCYFT [chain 1 T6Y] | -0.339 log2 (difference from the parental peptide) |
| chain 1 EEDDYNAYAPLTCYFT [chain 1 T6N] | 1.41 log2 (difference from the parental peptide) |
| chain 1 EEDDYMAYAPLTCYFT [chain 1 T6M] | 0.172 log2 (difference from the parental peptide) |
| chain 1 EEDDYKAYAPLTCYFT [chain 1 T6K] | -0.184 log2 (difference from the parental peptide) |
| chain 1 EEDDYRAYAPLTCYFT [chain 1 T6R] | 0.592 log2 (difference from the parental peptide) |
| chain 1 EEDDYAAYAPLTCYFT [chain 1 T6A] | 1.9 log2 (difference from the parental peptide) |
| chain 1 EEDDYTAYANLTCYFT [chain 1 P10N] | -8.22 log2 (difference from the parental peptide) |
| chain 1 EEDDYTAYAALTCYFT [chain 1 P10A] | -7.91 log2 (difference from the parental peptide) |
| chain 1 EEDDYTAYAGLTCYFT [chain 1 P10G] | -8.83 log2 (difference from the parental peptide) |
| chain 1 EEDDYTAYAQLTCYFT [chain 1 P10Q] | -5.59 log2 (difference from the parental peptide) |
| chain 1 EEDDYTAYAVLTCYFT [chain 1 P10V] | -8.99 log2 (difference from the parental peptide) |
| chain 1 EEDDYTAYAPLTCYET [chain 1 F15E] | -2.62 log2 (difference from the parental peptide) |
| chain 1 EEDDYTAYAPLTCYMT [chain 1 F15M] | 0.0729 log2 (difference from the parental peptide) |
| chain 1 EEDDYTAYAPLTCYDT [chain 1 F15D] | -4.04 log2 (difference from the parental peptide) |
| chain 1 EEDDYTAYAPLTCYTT [chain 1 F15T] | 0.316 log2 (difference from the parental peptide) |

| Variant | enrichment |
| --- | --- |
| chain 1 EEDDYTAYAPLTCYVT [chain 1 F15V] | 1.03 log2 (difference from the parental peptide) |
| chain 1 EEDDYTAYAPLTCYLT [chain 1 F15L] | 0.128 log2 (difference from the parental peptide) |
| chain 1 EEDDYTAYAPLTCYKT [chain 1 F15K] | -0.831 log2 (difference from the parental peptide) |
| chain 1 EEDDYTAYAPLTCYWT [chain 1 F15W] | -0.236 log2 (difference from the parental peptide) |
| chain 1 EEDDYTAYAPLTCYCT [chain 1 F15C] | -5.58 log2 (difference from the parental peptide) |
| chain 1 EEDDYTAYAPLTCYNT [chain 1 F15N] | -2.68 log2 (difference from the parental peptide) |
| chain 1 EEDDYTAYAPLTCYST [chain 1 F15S] | -0.989 log2 (difference from the parental peptide) |
| chain 1 EEDDYTAYQPLTCYFT [chain 1 A9Q] | -0.732 log2 (difference from the parental peptide) |
| chain 1 EEDDYTAYCPLTCYFT [chain 1 A9C] | -10.3 log2 (difference from the parental peptide) |
| chain 1 EEDDYTAYKPLTCYFT [chain 1 A9K] | -2.18 log2 (difference from the parental peptide) |
| chain 1 EEDDYTAYEPLTCYFT [chain 1 A9E] | -0.109 log2 (difference from the parental peptide) |
| chain 1 EEDDYTAYTPLTCYFT [chain 1 A9T] | -3.35 log2 (difference from the parental peptide) |
| chain 1 EEDDYTAYLPLTCYFT [chain 1 A9L] | -7.81 log2 (difference from the parental peptide) |
| chain 1 EEDDYTAYIPLTCYFT [chain 1 A9I] | -10.2 log2 (difference from the parental peptide) |
| chain 1 EEDDYTAYHPLTCYFT [chain 1 A9H] | -4.5 log2 (difference from the parental peptide) |
| chain 1 EEDDYTAYPPLTCYFT [chain 1 A9P] | -6 log2 (difference from the parental peptide) |
| chain 1 EEDDYTAYNPLTCYFT [chain 1 A9N] | -5.05 log2 (difference from the parental peptide) |
| chain 1 EEDDYTAYYPLTCYFT [chain 1 A9Y] | -7.05 log2 (difference from the parental peptide) |
| chain 1 EEDDYTAYSPLTCYFT [chain 1 A9S] | -1.48 log2 (difference from the parental peptide) |
| chain 1 EEDDYTAYMPLTCYFT [chain 1 A9M] | -4.18 log2 (difference from the parental peptide) |
| chain 1 EEDDYTIYAPLTCYFT [chain 1 A7I] | -0.489 log2 (difference from the parental peptide) |
| chain 1 EEDDYTRYAPLTCYFT [chain 1 A7R] | 1.21 log2 (difference from the parental peptide) |
| chain 1 EEDDYTDYAPLTCYFT [chain 1 A7D] | 1.19 log2 (difference from the parental peptide) |

| Variant | enrichment |
| --- | --- |
| chain 1 EEDDYTEYAPLTCYFT [chain 1 A7E] | 2.03 log2 (difference from the parental peptide) |
| chain 1 EEDDYTKYAPLTCYFT [chain 1 A7K] | 1.7 log2 (difference from the parental peptide) |
| chain 1 EEDDYTLYAPLTCYFT [chain 1 A7L] | 0.189 log2 (difference from the parental peptide) |
| chain 1 EEDDYTHYAPLTCYFT [chain 1 A7H] | -0.736 log2 (difference from the parental peptide) |
| chain 1 EEDDYTPYAPLTCYFT [chain 1 A7P] | 0.82 log2 (difference from the parental peptide) |
| chain 1 EEDDYTAYAPLYCYFT [chain 1 T12Y] | 0.868 log2 (difference from the parental peptide) |
| chain 1 EEDDYTAYAPLMCYFT [chain 1 T12M] | 0.511 log2 (difference from the parental peptide) |
| chain 1 EEDDYTAYAPLCCYFT [chain 1 T12C] | -7.25 log2 (difference from the parental peptide) |
| chain 1 EEDDYTAYAPLRCYFT [chain 1 T12R] | -2.9 log2 (difference from the parental peptide) |
| chain 1 EEDDYTAYAPLPCYFT [chain 1 T12P] | 1.92 log2 (difference from the parental peptide) |
| chain 1 EEDDYTAYAPLLCYFT [chain 1 T12L] | 0.858 log2 (difference from the parental peptide) |
| chain 1 EEDDYTAYAPLTCYFG [chain 1 T16G] | 1.32 log2 (difference from the parental peptide) |
| chain 1 EEDDYTAYAPLTCYFQ [chain 1 T16Q] | 1.05 log2 (difference from the parental peptide) |
| chain 1 EEDDYTAYAPLTCYFP [chain 1 T16P] | 1.74 log2 (difference from the parental peptide) |
| chain 1 EEDDYTAYAPLTCYFA [chain 1 T16A] | 1.23 log2 (difference from the parental peptide) |
| chain 1 EEDDYTAYAPLTCYFE [chain 1 T16E] | 1.13 log2 (difference from the parental peptide) |
| chain 1 EEDDYTAYAPLTCYFY [chain 1 T16Y] | -0.525 log2 (difference from the parental peptide) |
| chain 1 EEDDYTAYAPLTCYFH [chain 1 T16H] | -0.148 log2 (difference from the parental peptide) |
| chain 1 EEDDYTAYAPLTCYFR [chain 1 T16R] | -1.37 log2 (difference from the parental peptide) |
| chain 1 SEDDYTAYAPLTCYFT [chain 1 E1S] | -0.81 log2 (difference from the parental peptide) |
| chain 1 KEDDYTAYAPLTCYFT [chain 1 E1K] | -3.68 log2 (difference from the parental peptide) |
| chain 1 WEDDYTAYAPLTCYFT [chain 1 E1W] | -2.19 log2 (difference from the parental peptide) |
| chain 1 MEDDYTAYAPLTCYFT [chain 1 E1M] | -0.0267 log2 (difference from the parental peptide) |

| Variant | enrichment |
| --- | --- |
| chain 1 NEDDYTAYAPLTCYFT [chain 1 E1N] | -0.496 log2 (difference from the parental peptide) |
| chain 1 EEDDVTAYAPLTCYFT [chain 1 Y5V] | -3.13 log2 (difference from the parental peptide) |
| chain 1 EEDDETAYAPLTCYFT [chain 1 Y5E] | -1.36 log2 (difference from the parental peptide) |
| chain 1 EEDDMTAYAPLTCYFT [chain 1 Y5M] | -0.412 log2 (difference from the parental peptide) |
| chain 1 EEDDRTAYAPLTCYFT [chain 1 Y5R] | -6.25 log2 (difference from the parental peptide) |
| chain 1 EEDDATAYAPLTCYFT [chain 1 Y5A] | -4.1 log2 (difference from the parental peptide) |
| chain 1 EEDDNTAYAPLTCYFT [chain 1 Y5N] | -4 log2 (difference from the parental peptide) |
| chain 1 EEDDWTAYAPLTCYFT [chain 1 Y5W] | 1.32 log2 (difference from the parental peptide) |
| chain 1 EEDDYTAHAPLTCYFT [chain 1 Y8H] | -6.18 log2 (difference from the parental peptide) |
| chain 1 EEDDYTANAPLTCYFT [chain 1 Y8N] | -8.33 log2 (difference from the parental peptide) |
| chain 1 EEDDYTALAPLTCYFT [chain 1 Y8L] | -6.1 log2 (difference from the parental peptide) |
| chain 1 EEDDYTASAPLTCYFT [chain 1 Y8S] | -2.05 log2 (difference from the parental peptide) |
| chain 1 EEDDYTAYAPLTFYFT [chain 1 C13F] | -5.66 log2 (difference from the parental peptide) |
| chain 1 EEDDYTAYAPLTTYFT [chain 1 C13T] | -9.42 log2 (difference from the parental peptide) |
| chain 1 EEDDYTAYAPLTQYFT [chain 1 C13Q] | -9.57 log2 (difference from the parental peptide) |
| chain 1 EEDDYTAYAPLTWYFT [chain 1 C13W] | -6.26 log2 (difference from the parental peptide) |
| chain 1 EEDDYTAYAPATCYFT [chain 1 L11A] | 0.458 log2 (difference from the parental peptide) |
| chain 1 EEDDYTAYAPSTCYFT [chain 1 L11S] | -0.148 log2 (difference from the parental peptide) |
| chain 1 EEDDYTAYAPETCYFT [chain 1 L11E] | -3.32 log2 (difference from the parental peptide) |
| chain 1 EEDDYTAYAPMTCYFT [chain 1 L11M] | 2.39 log2 (difference from the parental peptide) |
